Here are results for one protein from patent US20220362355.

For this data set, the target named is fibrin clot obtained by reacting fibrinogen with thrombin.

B1: recombinant protein HtrA2 (residues 134-458 of the HtrA2 amino acid sequence) (protein)
chain: AVPSPPPASPRSQYNFIADVVEKTAPAVVYIEILDRHPFLGREVPISNGSGFVVAADGLIVTNAHVVADRRRVRVRLLSGDTYEAVVTAVDPVADIATLRIQTKEPLPTLPLGRSADVRQGEFVVAMGSPFALQNTITSGIVSSAQRPARDLGLPQTNVEYIQTDAAIDFGNSGGPLVNLDGEVIGVNTMKVTAGISFAIPSDRLREFLHRGEKKNSSSGISGSQRRYIGVMMLTLSPSILAELQLREPSFPDVQHGVLIHKVILGSPAHRAGLRPGDVILAIGEQMVQNAEDVYEAVRTQSQLAVQIRRGRETLTLYVTPEVTE
Protein B1 showed an A415 (dissolution of the fibrin clot, spectrophotometer, 2 mg/ml enzyme, 37 C, 24 h) of 1 ± 0.09 A415.
